# PMC10720262 (2023)
# Biological target: PfCSP full length (Plasmodium falciparum (isolate NF54), UniProt P19597)
# Experiment: ELISA AUC
# PfCSP full length, sequence (P19597 20-375): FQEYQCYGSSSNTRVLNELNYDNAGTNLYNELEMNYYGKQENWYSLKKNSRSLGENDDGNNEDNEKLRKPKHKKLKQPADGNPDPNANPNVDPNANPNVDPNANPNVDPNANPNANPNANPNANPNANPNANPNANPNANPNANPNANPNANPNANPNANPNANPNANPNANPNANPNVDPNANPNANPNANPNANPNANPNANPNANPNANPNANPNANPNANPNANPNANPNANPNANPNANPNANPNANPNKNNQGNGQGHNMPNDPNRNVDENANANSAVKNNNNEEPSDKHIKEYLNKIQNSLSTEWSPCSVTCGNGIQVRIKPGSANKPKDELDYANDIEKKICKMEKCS
row,Binder,binding score
1,"CL-531237 (antibody, V domains shown, peptides N-terminally acetylated and C-terminally amidated) VH: QVQLVESGGGVVQPGTSLRLSCVASGFTFSNFGIHWFRQAPGKGLEWVSLIWYDGKNKFYAESVTGRFTISRDNSKNTVYLQMSSLRAEDTAVYYCARSYYYDSGNYFDYWGQGTLVTVSS VL: DIQMTQSPSSVSASVGDRITITCRASQGISSRLAWFQQKPGKAPNFLIYGTSSLQSGVPSRFSGSGSGTDFTLTISSLQPEDSATYYCQQANSYPWTFGQGTKVEIK",2.18
2,"CL-509370 (antibody, V domains shown, peptides N-terminally acetylated and C-terminally amidated) VH: QVQLVESGGGVVQPGRSLRLSCAASGFTFSSYGMHWVRQAPGKGLEWVAVIWYDGSNKFYADSVKGHFTISRDNSKNTLYLQMNSLRAEDTAVYYCARDGRDLRGTGPYFDPWGQGTLVTVSS VL: EIVMTQSPATLSVSPGERAILSCRASQSVSSNLAWYQQKPGQAPRLLIYGASIRATGIPARFRGSGSGTEFTLTISILQSEDFAVYYCQQYNNWITFGQGTRLEIK",2.09
3,"CL-512469 (antibody, V domains shown, peptides N-terminally acetylated and C-terminally amidated) VH: QMQLVESGGGVVQPGRSLTLSCEASGFTFSNYGMHWVRQAPGKGLEWVAIIWFDGSHRFYADAVEGRFTISRDNSKNTLFLQMTSLRAEDAAVYYCARVGQFSSSSWGAFDIWGQGTVVTVSS VL: EIVLTQSPGTLSLSPGESVTLSCRASQIISNTHLAWYQQKPGQAPSLLIYGASSRATGIPDRFSGSGSGTDFTLTISRLEPEDFAVYYCQQYGRLWTFGQGTKVEIK",1.99
4,"CL-459404 (antibody, V domains shown, peptides N-terminally acetylated and C-terminally amidated) VH: QVQLVASGGGVVQPGRSLRLSCAASGFTFSNYGMHWVRQAPGKGLEWVAIIWYDGSKKYYSDSVKGRFTISRDNSKNTLNLQMNSLRAEDTAVYYCARAYGSGSYSDDYYGMDVWGQGTTVTVSS VL: DIQMTQSPSTLSASVGDRVTITCRASQSISPWLAWFQQKPGKAPKLLIYKASNLESGVPSRFSGSGSGTEFTLTISSLQPDDFATYYCQQYYTYWTFGQGTKVEIK",2.4
5,"CL-531912 (antibody, V domains shown, peptides N-terminally acetylated and C-terminally amidated) VH: LVQLVESGGGVVQPGRSLRLSCAASGFTFSSSGMHWVRQAPGKGLEWVAIIWYDGSNKFYADSVKGRFTISRDNSKNTLYLQMNSLRAEDTAVYYCARAYVSGSHGDKYGMDVWGQGTTVTVSS VL: DIQMTQSPSTLSASVGDRVTITCRASQSISSWLAWFQQKPGKAPKLLIYKASSLESGVPSRFSGSGSGTEFTLTINSLQPDDFATYFCQQYNNYWTFGQGTKVEIK",2.64
6,"CL-513462 (antibody, V domains shown, peptides N-terminally acetylated and C-terminally amidated) VH: QVQLVESGGGVVQPGRSLRVSCAASGFTFSNYGMYWVRQAPGKGLEWVAVIWHDGTNKFYEDSVKGRFTISRDNSKNTLYLQMNSLRAEDTAVYYCARAGYFQGSGSFLDYWGQGTLVTVSS VL: DIQMTQSPSTLSASVGDRVTITCRASQSISSWLAWYQQKPGKAPKLLIYKASSLESGVPSRFSGSGSGTEFTLTISSLQPDDFATYFCQQYSSYWTFGQGTKVEIK",2.47
7,"CL-531325 (antibody, V domains shown, peptides N-terminally acetylated and C-terminally amidated) VH: QVHLVESGGGVVQPGKSLRLSCAASGFTFSNFGMHWVRQAPGKGLEWVALIWYDGSHKFYADSVQGRFTISRDNSKNTLFLQMNSLRAEDTAIYYCAKVISYGSVNYYNNYKYTMDVWGQGTTVTVSS VL: not shown",2.55
8,"CL-510514 (antibody, V domains shown, peptides N-terminally acetylated and C-terminally amidated) VH: QVQLVESGGGVVQPGRSLRLSCTTSGFTFSNFGMHWVRQAPGKGLEWVALIWYDGSNKYYADSVKGRFTISRDNSKNTLYLQMNGLRAEDTAVYYCARDGGYYYGSGGAFDIWGQGTMVTVSS VL: not shown",2.12
9,"CL-513808 (antibody, V domains shown, peptides N-terminally acetylated and C-terminally amidated) VH: QVQLVESGGGVVQPGRSLRLSCAASGFTFSNYGMHWVRQAPGKGLEWVAIIWYDGSNKFYADSVKGRFTISRDNSKNTLYLQMNSLRAEDTAVYYCARDDRGHSYGPYFDFWGQGTLVTVSS VL: EIVMTQSPATLSVSPGERATLSCRASQSVSSNLAWYQQKPGQAPRLLIYGASIRATGIPARFSGSGSGTEFTLTISILQSEDFAVYYCQQCNNWPWTFGQGTKVEIK",2.17
10,"CL-532061 (antibody, V domains shown, peptides N-terminally acetylated and C-terminally amidated) VH: QVQLVESGGGVVQPGRSLRLSCVASRFTFSNYGMHWVRQTPGKGLEWVAIIWYDGSNKFYGDSVKGRFTISRDNSRNTLYLQMNNLRAEDTAVYYCARAYDDFVDHDKYGMDVWGQGTTVTVSS VL: DIQMTQSPSTLSASVGDRVTISCRASQSISIWLAWYQQKSGKAPKLLIYKASRLESGVPSRFSGSGSGTEFTLTISSLQPDDFATYYCQQYNSYWTFGQGTKVEIK",2.47
11,"CL-510596 (antibody, V domains shown, peptides N-terminally acetylated and C-terminally amidated) VH: QVQLEESGGGVVQPGRSLRLSCTATGFTFSNYGMHWVRQAPGKGLEWVAVIWYDGSNKYYVDSVKGRFTISRDNSKNTLYLQMNSLRAEDTAVYYCARDGGYYGSGSYWWFDSWGQGTLVTVSS VL: not shown",1.64
12,"CL-512761 (antibody, V domains shown, peptides N-terminally acetylated and C-terminally amidated) VH: QVQLVESGGGVVQPGTSLRLSCAASGFTFSNYGMHWVRQAPGKGLEWVSITWYDESNKFYADSVKGRFTISRDNSKNTLYLQMNSLRAEDTAVYYCARAYDTLTGYRAQKYGMDVWGQGTTVTVSS VL: DIQMTQSPSTLSASVGDRVTITCRASQRISTWLAWYQQKPGKAPKLLINEASRLESGVPSRFSGSGSGTEFTLTISSLQPDDFATYYCQQYNSYWTFGQGTKVEIK",2.17
13,"CL-437862 (antibody, V domains shown, peptides N-terminally acetylated and C-terminally amidated) VH: QVQLVESGGGVVQPGRSLRLSCAASGFTFSNSGMHWVRQVPGKGLEWVAIIWYDGGNKYYADSVKGRFTISRDNSKNTLYLQMNSLRAEDTAVYYCARAYYDILTSYDKDCCYGMDVWGQGTTVTVSS VL: not shown",2.4
14,"CL-510499 (antibody, V domains shown, peptides N-terminally acetylated and C-terminally amidated) VH: QVQLVESGGGLVQPGRSLTLSCAASGFTFSNYGMHWVRQTPGKGLEWVALIRYDGSYKFYADSVKGRFTISRDNSKNTLYLQMNSLRAEDTAIYFCARDGDYSNSAGDFDYWGQGTLVTVSS VL: EIVLTQSPGTLSLSPGERATLSCRASQSVSSTNLAWYQQKPGQAPRLLIYGVSSRATGIPDRFSGSGSGTDFTLTINRLEPEDFAVYYCQQHGRSFTFGPGTKVEIK",2.06
15,"CL-510640 (antibody, V domains shown, peptides N-terminally acetylated and C-terminally amidated) VH: QVQLVESGGGVVQPGRSLRLSCAASGFTFSNYGMHWVRQAPVKGLEWVAIIWYDGSNKFYADSVRGRFIISRDNSKNTLYLQMNSLRAEDTAVYFCARAREGQNSDYYGSETSYTFDSWGLGTLVTVSS VL: DIQMTQSPSTLSASVGDRVTITCRASQSISSWLAWYQQKPGKAPKFLIYKASSLESGVPSRFSGSGSGTEFTLTISSLQPDDFATYYCQQYKSYWTFGQGTKVEIK",2.16
16,"CL-510469 (antibody, V domains shown, peptides N-terminally acetylated and C-terminally amidated) VH: QVQLVESGGGVVQPGRSLRLSCAASGFTFSSYGMHWVRQAPGKGLEWVAVIWYDGSNQFYTDSVKGRFTISRDNSKNTLYLHMNSLRVEDTAIYYCARDGDYSSSAGDFDYWGQGTLVTVSS VL: not shown",2.16
17,"CL-460506 (antibody, V domains shown, peptides N-terminally acetylated and C-terminally amidated) VH: QVQLVESGGGVVQPGRSLRLSCAASGFTFSNYGMHWVRQAPGKGLEWMAIIWYDGSNKYYADSVKGRFTISRDNSMNTLYLQMNSLRPEDTALYYCARAFYYGSGTLDYWGQGTLVTVSS VL: EIVLTQSPATLSVSPGERATLSCRASQSVSSHLAWYQQKFGQAPRLLIYGASNRATGIPARFSGSGSGTEFTLTISILQSEDFAVYYCQQYNNWFTFGPGTKIDIK",2.2
18,"Ky15.11 (antibody, V domains shown, peptides N-terminally acetylated and C-terminally amidated) VH: QVQLVESGGGVVQPGRSLRLSCEASGFTFSNFGMHWVRQTPVKGLEWVAIIWFDGSYKYYTDSVKGRFTISRDNSKNTLYLQMNSLRAEDTAVYYCARARKGQRSDYYGSETSYTFDNWGQGTLVTVSS VL: DIQMTQSPSTLSASVGDRVTITCRASQSINGWLAWYQQKPGKAPKFLIYKASILESGIPSRFSGSGSGTEFTLTISSLQPDDFATYYCQQYSSYWTFGQGTKVEIK",2.53
19,"Ky15.3 (antibody, V domains shown, peptides N-terminally acetylated and C-terminally amidated) VH: QVQLVESGGGVVQPGRSLRLSCVASGFTFSNAGMHWVRQTPGKGLEWVAIIWYDGSIKYYGESVKGRFTISRDNSKNTLYLEMSSLRAEDTAVYFCVRAYSGSLYDKYGMDVWGQGTTVIVSS VL: DIQMTQSPSTLSASVGDRVTISCRASQTISTWLAWFQQKPGKAPKLLIYAASSLQSGVPSRFSGSGSGTDFTLTISNLQPDDFATYYCQQFNSYWTFGQGTKVEIK",2.2
20,"CL-511776 (antibody, V domains shown, peptides N-terminally acetylated and C-terminally amidated) VH: QVQLVESGGGVVQPGRSLTLSCAASGFTFSNFGMHWVRQAPGKGLEWMAVIWYDGNNEFYADSVKGRFTISRDNSKNMLYLHMNSLRAEDTAIYYCAREGDYSASGSHWLFDPWGQGTQVTVSS VL: DIQMTQSPSTLSASVGDSITITCRASQSINIWLAWYQQKPGKAPNLLIYKASSLESGVPSRFSGSGSGTEFTLTINSLQPDDFATYYCQQYNNYVTFGGGTKVEIK",2.14
21,"Ky15.7 (antibody, V domains shown, peptides N-terminally acetylated and C-terminally amidated) VH: QVQVVESGGGAVQPGRSLRLSCAASGFTFSNRGMHWVRQTPGKGLEWVAIIWYDGGNKFYADSVKGRFTISRDNSKNTLYLQMNSLRDEDTAVYYCVRAGDWKADKYTMDVWGQGTTVTVSS VL: DIQMTQSPSTLSASVGDRVTITCRASQSISSWLAWYQQKPGKAPKVLIYQASSLESGVPSRFSGSGSGTEFTLTISSLQPDDFATYYCQQYNSYWTFGQGTKVEIK",2.3
22,"CL-515341 (antibody, V domains shown, peptides N-terminally acetylated and C-terminally amidated) VH: QVYLVESGGGVVQPGKSLRLSCAASGFTFSNYGMHWVRQAPGKGLEWVAIIWHDGSNKFYSDSVRGRFTISRDNSQNTLYLQMNSLSAEDTALYFCAKDIGYSNTWDYFDYWGQGTLVTVSS VL: EIVLTQSPATLSLSPGERATLSCRASQSVNSFLAWYQQKPGQAPRLLIYDASNRATDIPDRFSGSGSGTDFTLTIRSLEPEDFAVYFCQQRSKWFTFGGGTTVEMK",2.38
23,"CL-531286 (antibody, V domains shown, peptides N-terminally acetylated and C-terminally amidated) VH: QVQLVESGGGLVQPGRSLRLSCAASGFTFSSSGMHWVRQAPGKGLEWVAVIWYDGSNKFYADSVKGRFTISRDNSKNTLYLQMNSLRAEDTAVYYCARSGYDILTGYFNFFDPWGQGTLVTVSS VL: EIVLTQSPGTLSLSPGERATLSCRASQSVSSSHLAWYQQKPGQAPRLLIYGASSRATGIPDRFSGSGSGTDFTLTISRLEPEDFAVYYCHQYVSSFTFGPGTKVDFK",2.29
24,"CL-447703 (antibody, V domains shown, peptides N-terminally acetylated and C-terminally amidated) VH: QVQLVESGGGVVQPGRSLRLSCEASGFTFSDHGMHWVRQGPGKGLEWVSIIWYDGSNKYYADSVKGRFTISRDNSKNTLYLEMNRLRAEDTALYYCARVWNHDDYKYSMDVWGQGTTVTVSS VL: not shown",2.5
